Test results taken from paper PMC3818223, “A RhoC Biosensor Reveals Differences in the Activation Kinetics of RhoA and RhoC in Migrating Cells” (PLoS ONE, 2013).

How the values were obtained:
[1] = target: T1, RhoC G14V, full length, as the C-terminal module of the RhoC FLARE.sc biosensor (UniProt P08134 1-193, G14V); test: FRET or BRET; intramolecular FRET of the single-chain biosensor (binding domain-mCerulean-linker-mVenus-RhoC); fluorometry of cold, live HEK293T cell suspensions in PBS 48 h after transfection, excitation 433 nm, emission 450-600 nm, FRET/CFP ratio; conditions: partners not purified
T1 construct: RhoC GTPase, full length, with G14V; On one chain with m1, as m2; also called constitutively active mutant; source: HEK293T, transfected (Lipofectamine2000), in live cell suspension; not shown: monomeric Venus, N-terminal, kept
T1 sequence (P08134 whole entry G14V, the tested form may be a part): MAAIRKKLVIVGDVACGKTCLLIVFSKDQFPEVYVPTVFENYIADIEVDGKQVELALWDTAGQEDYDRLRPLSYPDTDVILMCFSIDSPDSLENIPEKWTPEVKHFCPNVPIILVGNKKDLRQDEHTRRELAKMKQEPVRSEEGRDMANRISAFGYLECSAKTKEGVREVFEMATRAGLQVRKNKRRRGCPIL

[2] = target: T2, RhoC Q63L, full length, as the C-terminal module of the RhoC FLARE.sc biosensor (UniProt P08134 1-193, Q63L); test: as above; conditions: partners not purified
T2 construct: RhoC GTPase, full length, with Q63L; On one chain with m1, as m2; also called constitutively active mutant; source: HEK293T, transfected (Lipofectamine2000), in live cell suspension; not shown: monomeric Venus, N-terminal, kept
T2 sequence (P08134 whole entry Q63L): as the sequence (P08134 whole entry G14V, the tested form may be a part) above, with V14G, Q63L counted along it

B1: ROCK1 Rho binding domain (RBD, amino acids 905-1046), as the N-terminal module of the RhoC FLARE.sc biosensor (domain or fragment, UniProt Q13464 905-1046, looked up)
chain: ARGLLEEQYFELTQESKKAASRNRQEITDKDHTVSRLEEANSMLTKDIEILRRENEELTEKMKKAEEEYKLEKEEEISNLKAAFEKNINTERTLKTQAVNKLAEIMNRKDFKIDRKKANTQDLRKKEKENRKLQLELNQERE
notes: It is split from RhoC here so that the intramolecular pair can be written; Subcloned into pTriEX-HisMyc4 (Novagen), which may add His and Myc tags; source: HEK293T, transfected (Lipofectamine2000), in live cell suspension; not shown: monomeric Cerulean, C-terminal, kept
[1]
  increase in FRET ratio against the T19N biosensor: 41%
[2]
  increase in FRET ratio against the T19N biosensor: 41%
